Here are results for two substances from publication PMC2586147.

The target of the test is K401-BIO-H6 R210K (Drosophila) (UniProt P17210). The experiment in a line: AUC.

As for “K401 (from UniProt P17210 1-401) (domain or fragment)”, the stoichiometry N was 2. In the case of “K401-BIO-H6 R210K (from UniProt P17210 1-401) (domain or fragment)” it was 2.

The stoichiometry N is a count of units in the complex or per binding partner.
